This note sets out measurements from patent US20260209386A1 (MYTHIC THERAPEUTICS, published 2026).

To fix the notation:
T1: Human PTK7/CCK4 Protein, His Tag, Acro Biosystems PT7-H52H3 (human, UniProt Q13308 31-704)
T1 construct: bought protein; also called Human PTK7 Protein, His Tag, Acro Biosystems; not shown: His tag
T1 sequence: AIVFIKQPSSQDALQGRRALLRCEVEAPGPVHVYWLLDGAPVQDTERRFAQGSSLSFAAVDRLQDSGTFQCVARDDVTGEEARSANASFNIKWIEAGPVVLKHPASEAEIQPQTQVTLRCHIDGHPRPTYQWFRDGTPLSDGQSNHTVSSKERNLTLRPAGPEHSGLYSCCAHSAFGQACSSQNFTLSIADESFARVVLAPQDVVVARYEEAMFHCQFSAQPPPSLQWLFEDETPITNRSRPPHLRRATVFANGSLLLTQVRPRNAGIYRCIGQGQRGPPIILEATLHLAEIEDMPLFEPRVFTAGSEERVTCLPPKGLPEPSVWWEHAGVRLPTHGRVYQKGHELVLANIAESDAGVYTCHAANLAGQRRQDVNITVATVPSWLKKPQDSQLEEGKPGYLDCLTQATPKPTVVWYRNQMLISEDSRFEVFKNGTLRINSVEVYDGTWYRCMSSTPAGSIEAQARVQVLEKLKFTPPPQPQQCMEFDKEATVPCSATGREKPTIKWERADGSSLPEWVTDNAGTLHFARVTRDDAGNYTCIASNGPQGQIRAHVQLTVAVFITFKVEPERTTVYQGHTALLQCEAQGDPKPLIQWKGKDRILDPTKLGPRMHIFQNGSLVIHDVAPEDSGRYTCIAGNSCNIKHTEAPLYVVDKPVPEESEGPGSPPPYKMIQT

B1: MYT11180 (antibody, V domains shown)
VH: EVQLVESGGGLVQPGGSLRLSCTASHIDLSSYVMGWVRQAPGKGLEWVGYIYGGGGTYYATWARGRFTISRDTSKNTVYLQMNSLRAEDTAVYFCARAAADFYFNLWGQGTLVTVSS
VL: EIVMTQSPSTLSASVGDRVIITCQASQSISSYLAWYQQKPGKAPKLLIYDISDLASGVPSRFSGSGSGAEFTLTISSLQPDDFATYYCQSYYWISNSGAAFGQGTKLTVL
notes: IgG
B2: MYT11197 (antibody, V domains shown)
VH: EVQLVESGGGLVQPGGSLRLSCTASGIDLSSYVMGWVRQAPGKGLEWVGYIYGGGGHYYATWARGRFTISRDTSKNTVYLQMNSLRAEDTAVYFCARAAADFYFNLWGQGTLVTVSS
VL: EIVMTQSPSTLSASVGDRVIITCQASQSISSYLAWYQQKPGKAPKLLIYDISDLASGVPSRFSGSGSGAEFTLTISSLQPDDFATYYCQSYYWISNSGAAFGQGTKLTVL
notes: IgG
B3: MYT11194 (antibody, V domains shown)
VH: EVQLVESGGGLVQPGGSLRLSCTASGIDLSSYVMGWVRQAPGKGLEWVGYIYGHGGTYYATWARGRFTISRDTSKNTVYLQMNSLRAEDTAVYFCARAAADFYFNLWGQGTLVTVSS
VL: EIVMTQSPSTLSASVGDRVIITCQASQSISSYLAWYQQKPGKAPKLLIYDISDLASGVPSRFSGSGSGAEFTLTISSLQPDDFATYYCQSYYWISNSGAAFGQGTKLTVL
notes: IgG
B4: MYT11224 (antibody, V domains shown)
VH: EVQLVESGGGLVQPGGSLRLSCTASGIDLSSYVMGWVRQAPGKGLEWVGYIYGGGGTYYATWARGRFTISRDTSKNTVYLQMNSLRAEDTAVYFCARAAADFYFNLWGQGTLVTVSS
VL: EIVMTQSPSTLSASVGDRVIITCQASQHISSYLAWYQQKPGKAPKLLIYDISDLASGVPSRFSGSGSGAEFTLTISSLQPDDFATYYCQSYYWISNSGAAFGQGTKLTVL
notes: IgG
B5: MYT11213 (antibody, V domains shown)
VH: EVQLVESGGGLVQPGGSLRLSCTASGIDLSSYVMGWVRQAPGKGLEWVGYIYGGGGTYYATWARGRFTISRDTSKNTVYLQMNSLRAEDTAVYFCARAAADFHFNLWGQGTLVTVSS
VL: EIVMTQSPSTLSASVGDRVIITCQASQSISSYLAWYQQKPGKAPKLLIYDISDLASGVPSRFSGSGSGAEFTLTISSLQPDDFATYYCQSYYWISNSGAAFGQGTKLTVL
notes: IgG
B6: MYT11182 (antibody, V domains shown)
VH: EVQLVESGGGLVQPGGSLRLSCTASGIHLSSYVMGWVRQAPGKGLEWVGYIYGGGGTYYATWARGRFTISRDTSKNTVYLQMNSLRAEDTAVYFCARAAADFYFNLWGQGTLVTVSS
VL: EIVMTQSPSTLSASVGDRVIITCQASQSISSYLAWYQQKPGKAPKLLIYDISDLASGVPSRFSGSGSGAEFTLTISSLQPDDFATYYCQSYYWISNSGAAFGQGTKLTVL
notes: IgG
B7: MYT11193 (antibody, V domains shown)
VH: EVQLVESGGGLVQPGGSLRLSCTASGIDLSSYVMGWVRQAPGKGLEWVGYIYHGGGTYYATWARGRFTISRDTSKNTVYLQMNSLRAEDTAVYFCARAAADFYFNLWGQGTLVTVSS
VL: EIVMTQSPSTLSASVGDRVIITCQASQSISSYLAWYQQKPGKAPKLLIYDISDLASGVPSRFSGSGSGAEFTLTISSLQPDDFATYYCQSYYWISNSGAAFGQGTKLTVL
notes: IgG
B8: MYT11221 (antibody, V domains shown)
VH: EVQLVESGGGLVQPGGSLRLSCTASGIDLSSYVMGWVRQAPGKGLEWVGYIYGGGGTYYATWARGRFTISRDTSKNTVYLQMNSLRAEDTAVYFCARAAADFYFNLWGQGTLVTVSS
VL: EIVMTQSPSTLSASVGDRVIITCQHSQSISSYLAWYQQKPGKAPKLLIYDISDLASGVPSRFSGSGSGAEFTLTISSLQPDDFATYYCQSYYWISNSGAAFGQGTKLTVL
notes: IgG
B9: MYT11196 (antibody, V domains shown)
VH: EVQLVESGGGLVQPGGSLRLSCTASGIDLSSYVMGWVRQAPGKGLEWVGYIYGGGHTYYATWARGRFTISRDTSKNTVYLQMNSLRAEDTAVYFCARAAADFYFNLWGQGTLVTVSS
VL: EIVMTQSPSTLSASVGDRVIITCQASQSISSYLAWYQQKPGKAPKLLIYDISDLASGVPSRFSGSGSGAEFTLTISSLQPDDFATYYCQSYYWISNSGAAFGQGTKLTVL
notes: IgG
B10: MYT11184 (antibody, V domains shown)
VH: EVQLVESGGGLVQPGGSLRLSCTASGIDLHSYVMGWVRQAPGKGLEWVGYIYGGGGTYYATWARGRFTISRDTSKNTVYLQMNSLRAEDTAVYFCARAAADFYFNLWGQGTLVTVSS
VL: EIVMTQSPSTLSASVGDRVIITCQASQSISSYLAWYQQKPGKAPKLLIYDISDLASGVPSRFSGSGSGAEFTLTISSLQPDDFATYYCQSYYWISNSGAAFGQGTKLTVL
notes: IgG
B11: MYT11222 (antibody, V domains shown)
VH: EVQLVESGGGLVQPGGSLRLSCTASGIDLSSYVMGWVRQAPGKGLEWVGYIYGGGGTYYATWARGRFTISRDTSKNTVYLQMNSLRAEDTAVYFCARAAADFYFNLWGQGTLVTVSS
VL: EIVMTQSPSTLSASVGDRVIITCQAHQSISSYLAWYQQKPGKAPKLLIYDISDLASGVPSRFSGSGSGAEFTLTISSLQPDDFATYYCQSYYWISNSGAAFGQGTKLTVL
notes: IgG
B12: MYT11229 (antibody, V domains shown)
VH: EVQLVESGGGLVQPGGSLRLSCTASGIDLSSYVMGWVRQAPGKGLEWVGYIYGGGGTYYATWARGRFTISRDTSKNTVYLQMNSLRAEDTAVYFCARAAADFYFNLWGQGTLVTVSS
VL: EIVMTQSPSTLSASVGDRVIITCQASQSISSYHAWYQQKPGKAPKLLIYDISDLASGVPSRFSGSGSGAEFTLTISSLQPDDFATYYCQSYYWISNSGAAFGQGTKLTVL
notes: IgG
B13: MYT11192 (antibody, V domains shown)
VH: EVQLVESGGGLVQPGGSLRLSCTASGIDLSSYVMGWVRQAPGKGLEWVGYIHGGGGTYYATWARGRFTISRDTSKNTVYLQMNSLRAEDTAVYFCARAAADFYFNLWGQGTLVTVSS
VL: EIVMTQSPSTLSASVGDRVIITCQASQSISSYLAWYQQKPGKAPKLLIYDISDLASGVPSRFSGSGSGAEFTLTISSLQPDDFATYYCQSYYWISNSGAAFGQGTKLTVL
notes: IgG
B14: MYT11195 (antibody, V domains shown)
VH: EVQLVESGGGLVQPGGSLRLSCTASGIDLSSYVMGWVRQAPGKGLEWVGYIYGGHGTYYATWARGRFTISRDTSKNTVYLQMNSLRAEDTAVYFCARAAADFYFNLWGQGTLVTVSS
VL: EIVMTQSPSTLSASVGDRVIITCQASQSISSYLAWYQQKPGKAPKLLIYDISDLASGVPSRFSGSGSGAEFTLTISSLQPDDFATYYCQSYYWISNSGAAFGQGTKLTVL
notes: IgG
B15: MYT11225 (antibody, V domains shown)
VH: EVQLVESGGGLVQPGGSLRLSCTASGIDLSSYVMGWVRQAPGKGLEWVGYIYGGGGTYYATWARGRFTISRDTSKNTVYLQMNSLRAEDTAVYFCARAAADFYFNLWGQGTLVTVSS
VL: EIVMTQSPSTLSASVGDRVIITCQASQSHSSYLAWYQQKPGKAPKLLIYDISDLASGVPSRFSGSGSGAEFTLTISSLQPDDFATYYCQSYYWISNSGAAFGQGTKLTVL
notes: IgG
B16: MYT11210 (antibody, V domains shown)
VH: EVQLVESGGGLVQPGGSLRLSCTASGIDLSSYVMGWVRQAPGKGLEWVGYIYGGGGTYYATWARGRFTISRDTSKNTVYLQMNSLRAEDTAVYFCARAAHDFYFNLWGQGTLVTVSS
VL: EIVMTQSPSTLSASVGDRVIITCQASQSISSYLAWYQQKPGKAPKLLIYDISDLASGVPSRFSGSGSGAEFTLTISSLQPDDFATYYCQSYYWISNSGAAFGQGTKLTVL
notes: IgG
B17: MYT11163 (antibody, V domains shown)
VH: EVQLVESGGGLVQPGGSLRLSCTASGFSLSTYAMSWVRQAPGKGLEWVGMIYINDNTYYASWAKGRFTISRDTSKNTVYLQMNSLRAEDTAVYFCARDIGISYYIGVSLWGQGTLVTVSS
VL: EIVMTQSPSTLSASVGDRVIITCQASQSIGTRLSWYQQKPGKAPKLLIYGASKLATGVPSRFSGSGSGAEFTLTISSLQPDDFATYYCHGEYSYTTTDGIAFGQGTKLTVL
notes: IgG
B18: MYT11172 (antibody, V domains shown)
VH: EVQLVESGGGLVQPGGSLRLSCTASGFSLSTYAMSWVRQAPGKGLEWVGMIYINDNTYYASWAKGRFTISRDTSKNTVYLQMNSLRAEDTAVYFCARDIGISYYIGVSLWGQGTLVTVSS
VL: EIVMTQSPSTLSASVGDRVIITCQASQSIGTRLSWYQQKPGKAPKLLIYGASKLATGVPSRFSGSGSGAEFTLTISSLQPDDFATYYCLGEYSYTTTHGIAFGQGTKLTVL
notes: IgG
B19: MYT11166 (antibody, V domains shown)
VH: EVQLVESGGGLVQPGGSLRLSCTASGFSLSTYAMSWVRQAPGKGLEWVGMIYINDNTYYASWAKGRFTISRDTSKNTVYLQMNSLRAEDTAVYFCARDIGISYYIGVSLWGQGTLVTVSS
VL: EIVMTQSPSTLSASVGDRVIITCQASQSIGTRLSWYQQKPGKAPKLLIYGASKLATGVPSRFSGSGSGAEFTLTISSLQPDDFATYYCLGEHSYTTTDGIAFGQGTKLTVL
notes: IgG

This assay deals with T1, Human PTK7/CCK4 Protein, His Tag, Acro …. The assay can be described thus: BLI, antibody on anti-human Fc sensor, 50 nM PTK7. (In general: BLI is a label-free optical method that tracks binding on a fibre tip over time.)
On to B1, for which the binding result was “binds”.

B2: the binding result is reported as “binds”. Under B3 stands “binds”; under B4, “binds”; under B5, “binds”. Under B6 stands “binds”; under B7, “binds”.

Turning to B8, the binding result is recorded as “binds”. In the case of B9, the binding result was “binds”. In the case of B10, the binding result is on record as “binds”. In the case of B11, the binding result is “binds”. With B12, the binding result is recorded as “binds”. Regarding B13, the binding result is on record as “binds”. B14: the binding result is reported as “binds”. Regarding B15, the binding result is “binds”. Under B16 stands “binds”.

On to B17, for which the binding result was “binds”. As to B18, the binding result was “binds”. Consider B19, for which the binding result was “binds”.
